We go through one molecule from paper PMC12032302, “A20 attenuates oxidized self-DNA-mediated inflammation in acute kidney injury” (Signal Transduction and Targeted Therapy, 2025).

For test [1], the target named is T1, recombinant human NEK7 protein (human, UniProt Q8TDX7 1-302).
T1 construct: NEK7, human, recombinant; source: bought: SinoBiological
The experiment in a line: BLI; peptide immobilised on Octet AR2G biosensors at 400 μg/ml for 500 s; recombinant human NEK7 39.0625 to 1250 nM, association 120 s, dissociation 120 s; 1:1 binding model. The following applies: both partners purified. (In general: Biolayer interferometry detects binding as a change in optical thickness at a sensor tip.)

Test [2] deals with T2, HA-NEK7 (mouse NIMA-related kinase 7, wild type) (mouse, UniProt Q9ES74 1-302).
T2 construct: NEK7, mouse, cDNA amplified from a mouse cDNA library; also called WT-NEK7; HA-WT-NEK7; source: HEK293T, transiently transfected, in lysate; for BLI purified with HA antibody, eluted with 0.1 M glycine pH 2.0
The experiment in a line: BLI; 3×HA-NEK7 (WT or Tri-MUT) purified from HEK293T with HA antibody; legend: P-II diluted into the indicated concentrations; methods: peptide immobilised on AR2G biosensors; 1:1 binding model. To be noted: both partners purified.

T2 sequence (Q9ES74 whole entry): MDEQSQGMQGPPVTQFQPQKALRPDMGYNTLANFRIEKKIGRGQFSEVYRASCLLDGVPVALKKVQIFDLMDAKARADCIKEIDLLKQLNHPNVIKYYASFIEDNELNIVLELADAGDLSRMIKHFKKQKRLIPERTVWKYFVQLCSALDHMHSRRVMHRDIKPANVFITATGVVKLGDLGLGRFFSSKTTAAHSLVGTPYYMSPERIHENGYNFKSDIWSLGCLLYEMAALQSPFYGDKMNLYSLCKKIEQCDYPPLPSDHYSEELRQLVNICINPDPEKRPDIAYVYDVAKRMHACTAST
T1 sequence (Q8TDX7 whole entry): as the sequence (Q9ES74 whole entry) above, with T14P, S52A, D150E, I273M, I285V, A286T, T302S counted along it

B1: A20-derived peptide P-II (peptide)
peptide: KLVALKTNGDGNCLMHAACQYMWGVQDTD
notes: peptide generated according to the OTU domain of A20; also called NEK7 targeting peptide; source: synthetic peptide (constructed by GeneWiz; for BLI: Bootech BioScience &Technology)
Consider B1, for which the binding result in test [1] and in test [2] was “binds” throughout.
